The record followed here is PMC6073757.

Several values for one entry are separate records, joined by “and”; a condition that tells them apart may be missing. Identical values can stand only once.

Experiment [1] concerns the target LrtA protein of Synechocystis sp. PCC 6803 (Synechocystis sp. PCC 6803). Nature of the experiment: cross-linking; glutaraldehyde 1% final, 97 uM LrtA (protomer units), 50 mM Tris pH 8.0, 0.5 M NaCl, room temperature; aliquots on 12% SDS-PAGE.
Experiment [2] has the same target. Description: SEC; Superose 12 10/300 GL, 50 mM Tris pH 8.0, 0.7 M NaCl, 97 uM LrtA (protomer units) loaded in 100 uL, 25 °C; calibrated with blue dextran, albumin, RNase A.

Consider “LrtA protein of Synechocystis sp. PCC 6803 (natural protein)”, for which the stoichiometry N in experiment [1] was 2; in experiment [2], 6 and 12.
